Experimental findings from US20250092135A1 (NANJING LEADS BIOLABS, published 2025) are described below.

The target of assay [1] is T1, human MUC16 protein endogenously expressed on cells (human, UniProt Q8WXI7 1-14507).
T1 construct: whole, on cells; also called MUC16 on OVCAR3 cells; MUC16 in ovarian carcinoma tissue
Nature of the assay: flow cytometry, OVCAR3 cells (endogenous human MUC16), PE anti-human IgG Fc secondary, MFI; EC50 table under the plot, unit from the axis Conc.(nM). As for the experimental part: (1) Whether the anti-CD3/anti-MUC16 bispecific antibodies in the present invention could bind to the MUC16 protein endogenously expressed on human ovarian carcinoma cells (OVCAR3) (Cell Bank of Type Culture Collection Committee of the Chinese Academy of Sciences, Cat #TCHu228) was determined by cell binding experiments.
The experiments were performed using flow cytometry. OVCAR3 cells were digested, centrifuged and collected. The cells were resuspended in a PBS solution, and seeded into a 96-well plate (Corning, Cat #3799) at 1×10⁵ cells/well. The 96-well plate was centrifuged and then the supernatant was discarded. 100 μL of the serially diluted test bispecific antibody (at a maximum concentration of 200 nM, 5-fold dilution from 100 nM, 9 concentration points in total) was added to the OVCAR3 cells. The plate was incubated at 4° C. for 30 min and centrifuged (1000 rpm, 5 min), and then the supernatant was discarded. 100 μL of PBS solution was added to each well, and the cells were washed twice. 100 μL of fluorescent secondary antibody R-PE-conjugated AffiniPure Goat Anti-Human IgG, Fcγ Fragment Specific (Jackson ImmunoResearch, Cat #109-116-098) diluted in a ratio of 1:200 was then added. The cells were incubated at 4° C. for 30 min. After the cells were washed twice with the PBS solution, 100 μL of PBS solution was added to each well to resuspend the cells, and finally, fluorescence signals were detected using a BD Accuri C5 (BD Bioscience) flow cytometer according to the manufacturer's instructions. REGN4018 was used as a positive control.

The target of assay [2] is T2, rhesus monkey MUC16 protein (ECT_TM RhMuc16) on 293T cells (rhesus monkey).
T2 chain: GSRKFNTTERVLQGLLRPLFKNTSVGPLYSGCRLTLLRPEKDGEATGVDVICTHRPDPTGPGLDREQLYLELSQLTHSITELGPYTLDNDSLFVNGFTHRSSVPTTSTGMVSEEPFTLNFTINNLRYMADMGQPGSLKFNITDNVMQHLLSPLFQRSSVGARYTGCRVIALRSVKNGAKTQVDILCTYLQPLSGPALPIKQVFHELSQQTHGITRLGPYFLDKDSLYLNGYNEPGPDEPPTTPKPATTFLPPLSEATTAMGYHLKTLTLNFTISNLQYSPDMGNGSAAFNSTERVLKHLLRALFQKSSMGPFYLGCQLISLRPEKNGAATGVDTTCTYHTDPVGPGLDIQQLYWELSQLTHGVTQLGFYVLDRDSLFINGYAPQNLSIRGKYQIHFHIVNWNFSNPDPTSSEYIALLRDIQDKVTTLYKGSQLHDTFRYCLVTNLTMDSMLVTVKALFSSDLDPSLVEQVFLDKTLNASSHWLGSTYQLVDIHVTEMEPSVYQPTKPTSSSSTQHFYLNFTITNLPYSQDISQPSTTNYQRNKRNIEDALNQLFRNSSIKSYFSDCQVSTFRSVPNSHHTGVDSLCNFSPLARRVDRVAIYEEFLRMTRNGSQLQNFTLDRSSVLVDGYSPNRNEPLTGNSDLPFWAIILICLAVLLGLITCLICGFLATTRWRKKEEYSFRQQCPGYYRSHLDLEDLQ
Nature of the assay: flow cytometry, 293T/rhesus MUC16 cells as printed on the sheet and in the legend (the example, paragraph 611, speaks of cynomolgus MUC16), PE anti-human IgG Fc secondary, MFI; EC50 table under the plot, unit from the axis Conc.(nM). As for the experimental part: Referring to the flow cytometry described above, the serially diluted test bispecific antibody (at an initial concentration of 100 nM, 5-fold dilution, 9 points) was added to the cells, and the plate was incubated at 4° C. for 30 min. The cells were washed twice with PBS, and then fluorescent secondary antibody R-PE-conjugated AffiniPure Goat Anti-Human IgG, Fcγ Fragment Specific was added. The cells were incubated at 4° C. for 30 min. The cells were washed twice with PBS and then resuspended, and finally, fluorescence signals were detected using a BD Accuri C5 (BD Bioscience) flow cytometer.

Assay [3] has as its target T3, Cynomolgus monkey CD3D & CD3E heterodimer protein (cynomolgus monkey, UniProt Q95LI5 22-117; Q95LI8 22-105).
T3 construct: same catalogue number; also called monkey CD3 protein (Acro biosystems, Cat #CDD-C52W4)
Nature of the assay: BLI (ForteBio Octet RED96), antibody on AHC sensor, 100 nM analyte, 1:1 model. The source says: (§1) In this experiment, the binding affinity of the bispecific antibody [0913] for human CD3D & CD3E heterodimer protein (Sino Biological, Cat #CT038-H2508H) and monkey CD3D & CD3E heterodimer protein (Acro biosystems, Cat #CDD-C52W4) was detected using ForteBio Octet RED96 according to the manufacturer's instructions.
(§2) Briefly, an AHC sensor (ForteBio, Cat #18-5060) was placed in a running buffer (1×PBS, Hyclone, Cat #SH30256.01, containing 0.02% Tween 20, pH 7.0) and pre-equilibrated at room temperature for 10 min.
(§3) The experimental data were fitted and calculated using a Fortebio Data Analysis software 1:1 binding model.

Assay [4] deals with T4, Human CD3D & CD3E heterodimer protein (human, UniProt P07766 23-126; P04234 22-105).
T4 construct: Bought recombinant heterodimer; also called human CD3 protein (Sino Biological, Cat #CT038-H2508H)
T4 sequence (P07766 23-126 limits assumed, chain 1 of 2): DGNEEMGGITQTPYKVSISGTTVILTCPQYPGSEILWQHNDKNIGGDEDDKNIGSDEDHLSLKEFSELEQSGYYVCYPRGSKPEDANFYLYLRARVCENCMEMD
T4 sequence (P04234 22-105 limits assumed, chain 2 of 2): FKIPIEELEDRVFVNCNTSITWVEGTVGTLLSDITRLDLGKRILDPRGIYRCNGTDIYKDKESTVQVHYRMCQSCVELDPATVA
Described as above.
Text: as §1, §2, §3

The target in assay [5] is T5, cynomolgus monkey GPRC5D protein (cynomolgus monkey, UniProt Q9NZD1 1-343 (human entry)).
T5 construct: also called CynoGPRC5D; on HEK293T-CynoGPRC5D cells
T5 chain: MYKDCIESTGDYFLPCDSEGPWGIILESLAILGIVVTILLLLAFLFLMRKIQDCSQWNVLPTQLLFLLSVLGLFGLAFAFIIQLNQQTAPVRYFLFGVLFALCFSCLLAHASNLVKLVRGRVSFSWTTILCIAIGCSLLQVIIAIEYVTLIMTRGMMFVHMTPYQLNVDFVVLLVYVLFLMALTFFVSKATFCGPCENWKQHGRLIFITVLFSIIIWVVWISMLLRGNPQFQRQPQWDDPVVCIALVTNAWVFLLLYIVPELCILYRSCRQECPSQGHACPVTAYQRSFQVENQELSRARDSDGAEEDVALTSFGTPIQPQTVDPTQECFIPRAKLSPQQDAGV
The assay is described as follows: flow cytometry, HEK293T-CynoGPRC5D cells (sheet: 293T-cynoGPRC5D), PE anti-human IgG Fc secondary, MFI. Here is the method: The HEK293T-CynoGPRC5D cell line shown in Table 2 was subjected to enzymatic digestion to obtain a single cell suspension. The single cell suspension was centrifuged at room temperature at 400×g, and then the medium was discarded. The cell pellet was washed once with PBS and then resuspended in the serially diluted bifunctional antibodies shown in Table 5 (at an initial concentration of 115.6 nM, 4-fold gradient dilution, 8 concentration points in total), and the cells were incubated at 4° C. for 30 min. The cells were washed once with PBS, and then fluorescent secondary antibody R-PE-conjugated AffiniPure Goat Anti-Human IgG, Fcγ Fragment Specific (Jackson ImmunoResearch, Cat #109-116-098) diluted in a 1:200 ratio was added. The cells were incubated in the dark at 4° C. for 30 min. The cells were washed twice with PBS and then resuspended, and finally, two-channel fluorescence signals were detected using a Beckman Cytoflex flow cytometer.

The target of the next assay is T6, human GPRC5D protein (human, UniProt Q9NZD1 1-345).
T6 construct: NCI-H929 cells express it endogenously in the functional assays; also called HuGPRC5D; huGPRC5D
T6 sequence (Q9NZD1 whole entry): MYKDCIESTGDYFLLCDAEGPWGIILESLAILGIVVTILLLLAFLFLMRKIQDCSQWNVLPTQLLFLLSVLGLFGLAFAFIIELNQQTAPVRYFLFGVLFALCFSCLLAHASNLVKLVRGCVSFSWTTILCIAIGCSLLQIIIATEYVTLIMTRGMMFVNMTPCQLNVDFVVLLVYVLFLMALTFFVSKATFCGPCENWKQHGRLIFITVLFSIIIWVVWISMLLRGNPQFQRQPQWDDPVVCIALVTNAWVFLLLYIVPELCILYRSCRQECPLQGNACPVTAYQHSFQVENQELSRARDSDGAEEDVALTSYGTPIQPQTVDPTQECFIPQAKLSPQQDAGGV
The assay is described as follows: flow cytometry, HEK293T cells stably expressing human GPRC5D (sheet: 293T-huGPRC5D), PE anti-human IgG Fc secondary, MFI. Here is the method:
(2) Whether the anti-CD3/anti-GPRC5D bispecific antibodies in the present invention could bind to HEK293T cells stably expressing the human GPRC5D protein was determined by cell binding experiments. […] The plate was centrifuged at room temperature at 400×g, and then the supernatant was discarded. The cells were washed twice with PBS and centrifuged. The supernatant was discarded. The cell pellet was resuspended in fluorescent secondary antibody R-PE-conjugated AffiniPure Goat Anti-Human IgG, Fcγ Fragment Specific (Jackson ImmunoResearch, Cat #109-116-098) diluted in a 1:200 ratio. The cells were incubated in the dark at 4° C. for 30 min. The cells were washed twice with PBS, and 100 μL of PBS was added to each well to resuspend the cells. Fluorescence signals were detected using a Beckman Cytoflex flow cytometer.

T3 sequence (Q95LI5 22-117 limits assumed, chain 1 of 2): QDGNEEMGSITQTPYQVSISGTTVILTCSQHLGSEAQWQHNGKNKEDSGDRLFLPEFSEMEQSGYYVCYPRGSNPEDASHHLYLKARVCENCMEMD
T3 sequence (Q95LI8 22-105 limits assumed, chain 2 of 2): as the sequence (P04234 22-105 limits assumed, chain 2 of 2) above, with I5V, N15K, I20V, S32T, D33N, I34N, T64A, S74N, V83L counted along it

B1: control antibody REGN4018 (bispecific antibody, human IgG4 S228P, kappa)
heavy 1: QVQLVESGGGLVKPGGSLRLSCAASGFTFSNYYMSWVRQAPGKGLEWISYISGRGSTIFYADSVKGRITISRDNAKNSLFLQMNSLRAEDTAVYFCVKDRGGYSPYWGQGTLVTVSSASTKGPSVFPLAPCSRSTSESTAALGCLVKDYFPEPVTVSWNSGALTSGVHTFPAVLQSSGLYSLSSVVTVPSSSLGTKTYTCNVDHKPSNTKVDKRVESKYGPPCPPCPAPPVAGPSVFLFPPKPKDTLMISRTPEVTCVVVDVSQEDPEVQFNWYVDGVEVHNAKTKPREEQFNSTYRVVSVLTVLHQDWLNGKEYKCKVSNKGLPSSIEKTISKAKGQPREPQVYTLPPSQEEMTKNQVSLTCLVKGFYPSDIAVEWESNGQPENNYKTTPPVLDSDGSFFLYSRLTVDKSRWQEGNVFSCSVMHEALHNHYTQKSLSLSLGK
heavy 2: EVQLVESGGGLVQPGRSLRLSCAASGFTFDDYSMHWVRQAPGKGLEWVSGISWNSGSIGYADSVKGRFTISRDNAKNSLYLQMNSLRAEDTALYYCAKYGSGYGKFYYYGMDVWGQGTTVTVSSASTKGPSVFPLAPCSRSTSESTAALGCLVKDYFPEPVTVSWNSGALTSGVHTFPAVLQSSGLYSLSSVVTVPSSSLGTKTYTCNVDHKPSNTKVDKRVESKYGPPCPPCPAPPVAGPSVFLFPPKPKDTLMISRTPEVTCVVVDVSQEDPEVQFNWYVDGVEVHNAKTKPREEQFNSTYRVVSVLTVLHQDWLNGKEYKCKVSNKGLPSSIEKTISKAKGQPREPQVYTLPPSQEEMTKNQVSLTCLVKGFYPSDIAVEWESNGQPENNYKTTPPVLDSDGSFFLYSRLTVDKSRWQEGNVFSCSVMHEALHNRFTQKSLSLSLGK
light: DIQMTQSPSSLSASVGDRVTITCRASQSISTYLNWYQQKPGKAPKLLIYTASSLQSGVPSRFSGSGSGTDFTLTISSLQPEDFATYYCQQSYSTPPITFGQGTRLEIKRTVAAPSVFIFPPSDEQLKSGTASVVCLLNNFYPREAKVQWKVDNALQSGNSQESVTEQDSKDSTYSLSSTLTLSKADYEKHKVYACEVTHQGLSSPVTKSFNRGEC
notes: Derived from US20190389966A1; heavy chains REGN4018-8767pH and REGN4018-G20, light chain REGN4018-8767pL; also called positive control
Consider B1, for which the EC50 amounted to 1.45 nM in assay [1] and 3.74 nM in assay [2].

B2: anti-CD3/GPRC5D bispecific antibody Bi-29H6-6 (bispecific antibody)
heavy 1: QVQLVQSGAEVKKPGASVKVSCKASGYTFTTHYMYWVRQAPGQGLEWIGGINPSNEATNFNEKFKTKATLTVDKSTSTAYMELSSLRSEDTAVYYCTRVGGLSYTMDYWGQGTLVTVSSASTKGPSVFPLAPSSKSTSGGTAALGCLVKDYFPEPVTVSWNSGALTSGVHTFPAVLQSSGLYSLSSVVTVPSSSLGTQTYICNVNHKPSNTKVDKKVEPKSCDKTHTCPPCPAPEAAGGPSVFLFPPKPKDTLMISRTPEVTCVVVAVSHEDPEVKFNWYVDGVEVHNAKTKPREEQYNSTYRVVSVLTVLHQDWLNGKEYKCKVSNKALAAPIEKTISKAKGQPREPQVCTLPPSRDELTKNQVSLSCAVKGFYPSDIAVEWESNGQPENNYKTTPPVLDSDGSFFLVSKLTVDKSRWQQGNVFSCSVMHEALHNHYTQKSLSLSPGK
heavy 2: not shown
light: not shown
notes: G56E variant of the 29H6 VH; also called anti-GPRC5D/CD3 bifunctional antibody Bi-29H6-6
As for B2, the Kd came to 75.9 nM in assay [3] and 727 nM in assay [4]. The results for the off-rate (koff) in assay [3] and in assay [4] were 0.00631 s⁻¹ and 0.0158 s⁻¹, respectively. The kon in assay [3] is 83200 M⁻¹ s⁻¹; in assay [4], 21700 M⁻¹ s⁻¹. Further, the “EC50 (read off the curve)” value in assay [5] was approximately 8 nM; with human GPRC5D protein it was approximately 3 nM.
